This note sets out measurements from US20200405868A1 (ADEPTHERA, published 2020).

Where no end group is shown, it is not given here. The star is where a group is joined. Palmitoyl = CCCCCCCCCCCCCCCC(=O)*

In experiment [1] the target is T1, PTH receptor 1 (PTHR1) (UniProt Q03431 27-593, limits assumed).
T1 sequence (looked up): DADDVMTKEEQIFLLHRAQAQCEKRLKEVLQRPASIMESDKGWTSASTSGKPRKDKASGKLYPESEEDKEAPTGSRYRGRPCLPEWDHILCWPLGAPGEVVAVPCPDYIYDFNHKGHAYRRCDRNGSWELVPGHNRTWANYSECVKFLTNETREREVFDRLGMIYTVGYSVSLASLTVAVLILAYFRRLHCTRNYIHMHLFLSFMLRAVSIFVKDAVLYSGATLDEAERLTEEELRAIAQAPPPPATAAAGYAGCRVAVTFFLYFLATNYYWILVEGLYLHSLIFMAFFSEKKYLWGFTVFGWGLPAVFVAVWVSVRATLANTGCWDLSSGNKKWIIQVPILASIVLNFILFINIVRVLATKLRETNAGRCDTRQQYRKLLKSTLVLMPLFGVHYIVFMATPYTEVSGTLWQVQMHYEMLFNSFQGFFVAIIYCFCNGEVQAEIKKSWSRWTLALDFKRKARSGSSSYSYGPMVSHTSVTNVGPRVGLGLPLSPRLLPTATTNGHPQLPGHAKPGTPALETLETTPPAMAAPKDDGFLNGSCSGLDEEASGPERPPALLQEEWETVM
In words: cell-based or functional assay.

Experiment [2] has as its target melanocortin receptor 1 (MC1R) (UniProt Q01726 1-317, limits assumed). In words: cell-based or functional assay.

melanocortin receptor 1 (MC1R), sequence (Q01726 whole entry): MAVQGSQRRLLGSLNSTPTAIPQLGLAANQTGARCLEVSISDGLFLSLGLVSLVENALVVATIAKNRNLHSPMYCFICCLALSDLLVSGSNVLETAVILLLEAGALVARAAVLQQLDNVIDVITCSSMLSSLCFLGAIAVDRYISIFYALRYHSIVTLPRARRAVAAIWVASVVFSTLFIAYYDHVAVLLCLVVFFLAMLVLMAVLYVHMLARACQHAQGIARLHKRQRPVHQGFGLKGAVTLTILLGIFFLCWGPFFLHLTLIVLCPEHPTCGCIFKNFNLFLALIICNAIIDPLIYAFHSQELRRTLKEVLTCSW

As for Palmitoyl-HSYSEIQLMHNLGKHLNSMERVEWLRKKLQDVHNF [SEQ ID NO: 232, Pal-HSYSEIQLMHNLGKHLNSMERVEWLRKKLQDVHNF, gel-forming PTH analog], the “EC50 (nM), PTHR1 cAMP agonistic assay” value in experiment [1] is 14.1 nM.

With Palmitoyl-HSYSMEHFRWGKPVGKKRRPVKVYP [SEQ ID NO: 226, Pal-HSYSMEHFRWGKPVGKKRRPVKVYP, conjugated gel-forming ACTH1-24 analog], in experiment [2], the “EC50 (nM), MC1R cAMP agonistic assay” value came to 0.14 nM.
